This is an account of results in a protein production outcome set (Wang et al. 2014).

This data set is described as follows: label from the status in PepcDB records.

With “MHSTIGRLLEQTADAYPDRDAVVYPDRNIRYTYAQFDSLCRQTAKGLMRMGIGKGDHVAIWASNISEWLAVQFATAKIGAVLVTVNTNYQAHELDYLLKQSDAAALIIMDSYRGTSYPDIVNSLIPELQEAKPGQLKSERYPFLKTLIYIGNKRLSGMYHWDDTEILAKTVTDAELEERMNSLDKDNVINMQYTSGTTGFPKGVMLTHFNVINNAANIAECMALTSQDRMCIPVPFFHCFGCVLGVLACVSVGAAMIPVQEFDPVTVLKTVEKEKCTVLHGVPTMFIAELHHPDFDAYDLSTLRTGIMAGSPCPSEVMKAVIERMGMKDITIAYGQTEASPVITQTRANDSFIRRVETTGRALPHTEVKIVEPGTCQEVQRGMQGELCTRGYHVMKGYYKDKDATRKAINHDGWLFTGDLAVMDEDGYCRITGRLKDMLIRGGENIYPREIEEFLYQHPAVLDVQVVGVPDAKFGEEAAAWIKLKDGKSVSPDELKAYCKGKIARHKIPRYVIFTDDYPMTAS”, the protein production entry is listed as “failed”. With “MHTAICDELGIEFPIFAFTHCRDVVVAVSKAGGFGVLGAVGFTPEQLEIELNWIDEHIGDHPYGVDIVIPNKYEGMDSQLSADELAKTLRSMVPQEHLDFARKILADHGVPVEDADEDSLQLLGWTEATATPQVDAALKHPKMTMVANALGTPPADMIKHIHDSGRKVAALCGSPSQARKHADAGVDIIIAQGGEAGGHCGEVGSIVLWPQVVKEVAPVPVLAAGGIGSGQQIAAALALGTQGAWTGSQWLMVEEAANTAVQQAAYVKATSRDTVRSRSFTGKPARMLRNDWTEAWEQPESPKPLGMPLQYMVSGMAVKATHKYPNETVDVAFNPVGQVVGQFTKVEKTATVIERWVQEYLEATARLDALNAAASV” the entry was “failed”; with “MHVALNQTMPDDVQGTVATIYTSSEQLQLFAFEAEVNENFEMAAAYYKERLVREPQNLDHWLDYGAFCLLTEDNIKAQECFQKALSLNQSHIHSLLLCGVLAVLLENYEQAEIFFEDATCLEPTNVVAWTLLGLYYEIQNNDIRMEMAFHEASKQLQARMLQAQVTKQKSTGVEDTEERGKRESSLGPWGITNGSATAIKVEAPAGPGAALSILDKFLEESSKLQSDSQEPILTTQTWDPSISQKPSNTFIKEIPTKKEASKCQDSSALLHPGLHYGVSQTTTIFMETIHFLMKVKAVQYVHRVLAHELLCPQGGPSCEYYLVLAQTHILKKNFAKAEEYLQQAAQMDYLNPNVWGLKGHLYFLSGNHSEAKACYERTISFVVDASEMHFIFLRLGLIYLEEKELEELTEAEDALSEANALNNYNAEVWAYLALVCLKVGRQLEAEQAYKYMIKLKLKDEALLAEIHTLQETVGFGNPSF”, “failed”.

For the sequence “MHVAVRRSNTPHPLSSLRHDIVIEPLEEERPPSRFGYDMAGKALSVQPTIDPSAKLHETRLGAYTEVGARTILHEVTMGDYSYVVNDSQITYTTIGKFCSIAAMTRINPGNHPMHRATQAHFTYRSSAYFPGESDDTEFFDWRRQHHVHIGHDVWIGHGAIVLPGRNIGTGAVIAAGAIVTKDVPAYTIVAGNPARIVRRRFSEEIAGRLARLAWWDWDHDKLREALPDFRRLGIEDFLSTYEARAHSPVSKRSAVA”, the protein production entry was “failed”. To “MHVISTSKKTVLSDFADLETKSEYVHQNAEPTDFQFNGQRRVFVEVDKMAGLAVMRIKEKDGKTPEIQRVRKLTIDNAFCVACAKQSLEEIAVGQSGCVKLYNFRTAQLIHRFPADPQRSTVLYMDYNNTDEYIAAVRDGGDISILGTKTKQKTNTFTIDGDSTLVRFHPSKRFHLSIASYKGAVTVYDVQGMRKIFHASEAHSAPCRDISMCTSQPALLVSVGYDCKINIFDIRRNRAQASTDRLTYSHPLSTVALSECGTYLCAGNLKGELIAYDMRSTKAPLAVRSVHDAAVTRVAFVPVPSGDNQQNGSLNSSENATGLATEAPRVERAPSDELRKSIAANLLSTQNQLTSLGYGVSTPTIVRRDSFCEFLDAQGPRAVDRMSTRLGASYRDSFDWETLNRKPQPYETANRQSLCPPVASGPSSVDNSVNSSTTESLQQTLSGPLKDRSNISGDGKLMKIAETDELCEEQSANISVASSTGGGSDKENPPPVDAEMKRRLRLLSASRNSTPHHANITPQSSNPLLKPQQLLAKSSSGLSAQMDADWRKEFSELRDFVDQRCEKVERELEYVTFSNQRLLANKMTNYMDQQVENTREIRDALALLLQGDSFMREFSRLQNENEMLKAKLKFYQEQEQTESCGE” belongs “failed”; to “MHVPIRLLEWFKVEQTLVIQKKKRFGFSQGIGITLLIAIVAKYLAELPFLNIMGQLVIAILIGMVWRAAIGVPHDAIAGTNFASKKLLRFGIILLGMRLNLVDIAKAGPKVLVIAAVVITFTIFVVYGLTKVFKVEKKLGILTACGTAICGAAAVVAIAPQVKAKDDETAVGAAIIAILGTIFTLIYTLLYPVLGLSPYGYGVFSGATLHEIAHVIAAAAPGGSAAVDIAVIVKLTRVAMLVPVAILIGLWFGKSEGSKEKRSWRDLPIPWFIFGFLAMSAVHSLGIIPEVVAGYIVVIAYMLIAMAMAGLGLNVEFKTFRKLGSKAFVAGLIGSVCLSVLGYVLVYALGFM”, “failed”; to “MHVSSGRWVYGLFLALLTALLWGILPIKLKQVLQVMDPVTVTWFRLTVSGGCLLAYLAAVGRLPRWRVLGPKGIWLVPISVCGLVGNYVLYLMGLNLLSPGTAQLVVQMGPILLLIASLFVFKERFSLGQGLGLLVLLIGFGLFFNQRLSELLTSLSDYTAGVLTILAASAVWTFYALGQKQLLSVWNSLQVMMVIYLFCALLLTPWAHPLEALEVNPLQGWLLLGCCLNTLIAYGAFAEALAHWEASRVSATLAITPLVTFVAVAWAAWLWPEYVQAEQINGLGYGGALLVVLGSALTALGPSLMAGLRARRQRIAAG”, “failed”. For the sequence “MHVYESDVSWIDDRRTEVSVGDHRIEVDSPPEFGGPEGQLYPETLFPSVLASCLLTTFLEFKDRMGINLKSWNSHVTAELGPSPEKGFKFHRIKIHVKIGVNDEDKEKIPRAMQLAEKYCFISRAIRNNVEEIVDYEFV”, the protein production entry was “not failed”. Take “MIAAYENSKWEPVKWENDMHCAVKIQDKNQWRRGQIIRMVTDTLVEVLLYDVGVELVVNVDCLRKLEENLKTMGRLSL”: the protein production entry is on record as “not failed”. Consider “MIADDPHLELRLAASERDLRAAQRLRYTVFVEELGGDGDLVDHAERLERDEFDDLCDHLLLIDRRRDAAALEDVVGVYRLLPGERAAGAGRFYCDSEYDLDPLRASGRRVLELGRSCVHPDYRGGAAVFLLWSGLADYALAQRTELLFGVASFHGTDIEALAEPLSYLHAFHLAPEELRVRARSEGGQRMDLIPPERIDRRAAMLA”, for which the protein production entry was “not failed”. On to “MIAGFDAKLVASADTPLTIGNVPSGMEALLLADMARAGTSVAYVMSDGQRVADLEQILGFVAPDIPVLTLPAWDCLPYDRVSPSADTSARRLAALAGLINHAKKPHPAVVLVTVNAMLQKMAPRDVIESLGFSARPGNQIRMEDIAARLERNGFDRVATVREVGEFAVRGGILDVFVPGTEEPVRLDFFGDTLESIRTFDPASQRTIAQARSLDLNPMSEVTLTPDTIGRFRKNYLSLFGAATRDDALYQAVSEGRRYAGMEHWLPLFYEQLETAFDYLKGFRIVTDHTAKEAAKERSKLVLDYYEARRASGETKGSTQGAPYKPVSPGQIYLDGKSFEAALASVNAVRLTPFNEHDSEGRPVATLDAHVGPRWARPPTEGDSEERVNVFDLAVKHIAERRAKGWKVLITGWSEGSLDRLLQVLNEHGLEKIKPVTSLKEVKKLGKGEAACAVLSLEAGFETGTLAVIGEQDILGDRMVRRSKRRKRGADFIAEVAGLDEGSLVVHAEHGIGRFVGLQTIEAAGAPRACLELHYADDAKLFLPVENIDLLSRYGSDAAEATLDKLGGGAWQMRKAKLKKRLLDMADELIRIAAARLVRHAPALIAPDGLYDEFAARFPYDETEDQLNAIEAVRDDLGAGRPMDRLICGDVGFGKTEVALRAAFLAAMNGVQVAVVVPTTLLARQHFRTFSERFRGLPIRVQQASRLVGSKELALTKKEVAEGKTDIVVGTHALLGAGISFANLGLLIIDEEQHFGVKHKERLKELKSDVHVLTLSATPIPRTLQLAMTGVRELSLITTPPVDRMAVRTFISPFDPLVIRETLMREHYRGGQSFYVCPRLADLADIHAFLQSDVPELKVAVAHGQMAAGELEDIMNAFYDGKYDVLLSTTIVESGLDVPTANTLIVHRADMFGLAQLYQLRGRVGRSKVRAFALFTLPVNKVLTTMAERRLKVLQSLDTLGAGFQLASHDLDIRGAGNLLGEEQSGHIKEVGFELYQQMLEEAVAEVKGDEEVRDSGWSPQISVGTSVMIPEDYVPDLHLRMGLYRRLGELADISEIDGFGAEMIDRFGPLPKEVQHLLKIVYIKSLCRTANVEKVDAGPKGVVVQFRNKEFPNPAALVGYIGKQGSMAKIRPDHSLFLNRDLPTPEKRLTGAAMVMTQLAELARS”, for which the protein production entry is reported as “failed”. With “MIAHMTRDNEYKTIKDRLITLVEKEQAHRTLNQYNSDKANHDITRLSNKMRLLRRLIEHPVILNEKVSSLGNNTKRAVKGLATGLVMVAVTITAISARDYWGEITASFIIAMSFIYALREIFKDDLRDMLWRWISKGKAKWRRHYFDPTTGKQVGDKEEWLDYKKLSELPDRIQAIRKKRIVQREEQILHYRSHTEMSTSRFMSGYEETRETMMIDLRAIMRQMDKGSNHIYQLNNGQVSRESVEKRHLLNLIAKEKHHKGEPTYYRWKIVLNRSRIVDIESIPLT”, the protein production entry was “failed”. To “MIATIQNEKVIVSISDKGAELQSVRLKEDNTEYLWQGDSTYWGRRAPILFPIVGRLVDNTYYVDDKPYSLTQHGFARDLTFTVKEQSETKITYIVTSNEETLKKYPYEFELLVSYELDGQIVHVTYEVNNPTSKEMFFSIGAHPGFNFPLLEGESFTDYHLSFNGSERLETSVLEGPYLSNKKQLIAESTNELPLTYDLFKNDALIFENMNTDEISIRSHKHNKFVKVEFDGFPFVGVWTPGENAPFLCIEPWYGIADEVNPAKDFKEKKGIQSLQANETFTCRYSITIG” belongs “failed”; to “MICFIKTLFVKIKRKKTSYVTFFLMPILTTLLALSLSFSNNNQAKIGILDKDNSQISKQFIAQLKQNKKYDIFTKIKKEHIDHYLQDKSLEAVLTIDKGFSDKVLQGKSQKLNIRSIANSEITEWVKAQTNYLLENYNIIGDVALGNEDTFNRILQKNQQLNYDVKQVTLTDRSRSKAVSSTTTGFLLILMLGSTSVIYSGILADKSSQLYHRLMLSNLSRFRYMLSYVCVGFVAFTIQIVIMLSLLKVFNISFFVPTSLLLIIFFLFSLLAIGFGLLIGAITQNSQQSSQLANLIVMPTSMLAGCLWPLSITPSYMQAIGKLLPQNWVLSAIAIFQSGGTLSQAWPYLLALMGTALALISFSSLLLKPTKL”, “failed”; to “MICKLKLLSLPSYSSKPCNFYIHLKCSELPQKIRHPFDRNHLLSLISSPKYQEGRFRCNACGKDGDRLAYHCGDCGIDLHTVCANMPSRVTHQSHPHHQLSLTFSMPPGGPGSAAASSFQCCVCRGLGSNSWLYSCGECSGFDAHL”, “failed”. With “MICRTIVEGTTKISVPVPPPDANFPPSAAPVFYNPEMELNRDINVAATAAFVERLLSKKDILREEIRYVDAFSASGIRGLRIAGEVGIHSTMNDWSHEAFELIKENIKINGLEEKAQATRRNANVLLHEQRFHIVDVDPFGTPSPYLDAAASSAYSMLSVTATDTAPLCGAHLNSGIRKYASVPLNTEYHSEMGLRVLLGACARELAKHEKGMLPLLSHVTRHYVRTYLEVLPGSRKADKTLKSMGFVAHCPRCGFRKPVYGLAVHIEKECPECGGLTKIAGPLWLGPYREPEFCNEVISELEAHPLNTKEKVRKIITFCRDELDIPMFYDQHVICKELGASATGIESLIEALRAGGFEASRTHFTGTSFKTDAPIAEIKKIILALSG”, the protein production entry was “failed”.
